Measurements taken from patent US20150071950A1 (SAMSUNG ELECTRONICS, published 2015).

Experiments:
[1] = target: T1, human c-Met/Fc fusion protein (R&D Systems) (human, UniProt P08581 25-932); assay: ELISA, hybridoma culture on plate-coated human c-Met/Fc fusion protein
T1 construct: Bought protein; also called c-Met-Fc (#358-MT/CF, R&D Systems); human c-Met/Fc protein; not shown: Fc part of the bought fusion protein
Protocol: The hybridoma cell culture obtained in Reference Example 1.1.2 was added in an amount of 50 μL to each well of the plates and incubated for 1 hour. The cells remaining unreacted were washed out with a sufficient amount of Tris-buffered saline and Tween 20 (TBST). Goat anti-mouse IgG-horseradish peroxidase (HRP) was added to the plates and incubated for 1 hour at room temperature. The plates were washed with a sufficient amount of TBST, followed by reacting the peroxidase with a substrate (OPD). Absorbance at 450 nm was measured on an ELISA reader.

[2] = target: T1, human c-Met/Fc fusion protein (R&D …); assay: SPR, Biacore T100; antibody captured by human Fab capture on CM5 chip, c-Met-Fc as analyte
Protocol: (§1) An examination was made to see whether the antibody-drug conjugates maintain affinity for the antigen.
(§2) Briefly, a human Fab capture (GE Healthcare) was immobilized on CM5 chip (#BR-1005-30, GE) according to the manufacturer's instruction. […] The chip was regenerated with 10 mM Glycine-HCl (pH 1.5). To quantify the affinity, the data obtained above was fitted using BIAevaluation software (GE Healthcare, Biacore T100 evaluation software).

[3] = target: T1, human c-Met/Fc fusion protein (R&D …); assay: SPR, Biacore T100; ADC captured by human Fab capture on CM5 chip, c-Met-Fc as analyte
Protocol: as §1, §2

T1 sequence (P08581 25-932 limits assumed): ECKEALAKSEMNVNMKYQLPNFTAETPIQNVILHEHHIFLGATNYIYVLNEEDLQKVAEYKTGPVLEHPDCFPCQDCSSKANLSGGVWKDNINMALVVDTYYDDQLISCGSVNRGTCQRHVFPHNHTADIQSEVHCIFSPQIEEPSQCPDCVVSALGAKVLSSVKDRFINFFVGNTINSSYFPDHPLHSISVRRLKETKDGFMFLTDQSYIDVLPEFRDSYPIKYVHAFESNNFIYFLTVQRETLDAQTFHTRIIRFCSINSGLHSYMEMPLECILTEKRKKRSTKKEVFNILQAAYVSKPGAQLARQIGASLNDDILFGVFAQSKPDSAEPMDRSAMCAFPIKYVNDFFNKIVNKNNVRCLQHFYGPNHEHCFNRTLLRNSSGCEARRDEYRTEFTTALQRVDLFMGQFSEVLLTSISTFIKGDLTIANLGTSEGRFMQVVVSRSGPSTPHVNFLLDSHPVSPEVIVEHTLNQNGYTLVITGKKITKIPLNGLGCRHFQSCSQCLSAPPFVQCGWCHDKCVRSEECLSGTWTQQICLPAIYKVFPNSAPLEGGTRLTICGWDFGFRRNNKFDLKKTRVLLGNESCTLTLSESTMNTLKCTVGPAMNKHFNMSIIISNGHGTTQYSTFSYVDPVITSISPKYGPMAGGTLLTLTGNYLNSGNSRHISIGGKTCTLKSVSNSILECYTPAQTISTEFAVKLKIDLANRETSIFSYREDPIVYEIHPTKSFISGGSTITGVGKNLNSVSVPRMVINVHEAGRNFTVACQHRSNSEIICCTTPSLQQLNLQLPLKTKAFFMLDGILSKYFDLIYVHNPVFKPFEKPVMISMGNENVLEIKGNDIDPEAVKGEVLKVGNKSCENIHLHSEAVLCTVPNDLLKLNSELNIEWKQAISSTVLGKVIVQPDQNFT

B1: AbF46, mouse monoclonal antibody to c-Met (hybridoma KCLRF-BP-00220) (antibody, V domains shown)
VH: EVKLVESGGGLVQPGGSLRLSCATSGFTFTDYYMSWVRQPPGKALEWLGFIRNKANGYTTEYSASVKGRFTISRDNSQSILYLQMDTLRAEDSATYYCARDNWFAYWGQGTLVTVSA
VL: DILMTQSPSSLTVSAGEKVTMSCKSSQSLLASGNQNNYLAWHQQKPGRSPKMLIIWASTRVSGVPDRFIGSGSGTDFTLTINSVQAEDLAVYYCQQSYSAPLTFGAGTKLELK
notes: Tested as hybridoma culture supernatant in the selection ELISA; also called mouse antibody AbF46
Question: Does B1 bind [1]?
Answer: Result: binds

B2: anti-c-Met antibody L3-1Y/IgG2 (antibody, V domains shown)
VH: EVQLVESGGGLVQPGGSLRLSCAASGFTFTDYYMSWVRQAPGKGLEWLGFIRNKANGYTTEYSASVKGRFTISRDNSKNTLYLQMNSLRAEDTAVYYCARDNWFAYWGQGTLVTVSS
VL: DIQMTQSPSSLSASVGDRVTITCKSSQSLLASGNQNNYLAWYQQKPGKAPKMLIIWASTRVSGVPSRFSGSGSGTDFTLTISSLQPEDFATYYCQQSYSRPYTFGQGTKVEIKR
notes: also called huAbF46-H4-A1 (IgG2 Fc)
Question: B2 was tested. Which Kd [2] did it give?
Answer: Its Kd is 0.058 nM.

Question: And the koff [2]?
Answer: The koff was 3.42e-05 s⁻¹.

Question: What about the kon [2] of the same binder?
Answer: The kon was 589000 M⁻¹ s⁻¹.

B3: antibody-drug conjugate ADC1 (L3-1Y/IgG2 conjugated with docetaxel by amine coupling, feed molar ratio 5; DAR 3.7) (antibody, V domains shown)
VH: B2 VH
VL: B2 VL
modifications: docetaxel-succinate (NHS-DTX) coupled to primary amines of lysine residues; sites not stated; DAR 3.7 for the whole antibody
notes: also called ADC (DAR 3.7)
Question: Which results are given for B3?
Answer: Kd [3]: 0.0998 nM; koff [3]: 3.63e-05 s⁻¹; kon [3]: 364000 M⁻¹ s⁻¹
